In patent publication US11214614B2, “LTBP complex-specific inhibitors of TGFβ and uses thereof” (Scholar Rock, Inc., priority 2019, dated 2022):

Columns and labels:
[1] = tested on: male C57BL/6J mice on CDHFD (liver fibrosis); test: Choline-deficient high fat diet (CDHFD) model of mouse NASH, liver hydroxyproline content; format: in vivo; details: 15 mg/kg twice a week i.p., weeks 4 through 12 of CDHFD
Excerpt: The Choline deficient high fat diet (CDHFD) is an established diet-induced model of Non-Alcoholic steatohepatitis (NASH). In this model, male C57BL/6J mice are fed a choline deficient, 0.10% Methionine, high fat diet for 12 weeks. Three to six weeks after the start of the CDHFD, activation of pro-fibrotic processes can be detected through increased expression of α-smooth muscle actin (α-SMA) protein, a marker for activation of hepatic stellate cells, and elevated tissue hydroxyproline content reflecting increased collagen synthesis and deposition (Matsumoto et. al, Int J Exp Pathol. 2013 April; 94(2):93-103).
LTBP complex-specific antibodies were tested for their ability to inhibit and/or reduce the extent of liver fibrosis in mice in the CDHFD model as follows. An outline of the study is shown below in Table 21.
Animals in the test cohorts were on the CDHFD for the duration of the study. A separate cohort of mice (Group 1) were administered a regular chow diet as a study control. Antibodies SR-AB42 and SR-AB31 were administered to mice by intraperitoneal (i.p.) injection beginning at 4 weeks post start of the CDHFD. Animals were dosed at antibody test concentrations 15 mg/kg twice a week (i.e., 30 mg/kg/week) for a test duration of 8 weeks (i.e., weeks 4 through 12). […] Endpoint readout was hydroxyproline content. […]

[2] = tested on: phosphorylation of Smad2/3 in kidney of Col4a3−/− mice; test: Alport (Col4a3−/−) mouse model, pSMAD2/3 ELISA on whole kidney lysates; format: in vivo; details: single dose 30 mg/kg i.p., 48 hours prior to sacrifice, 11 week old Col4a3−/− mice
Excerpt: The murine Col4a3 −/− model is an established genetic model of autosomal recessive Alport syndrome. Alport mice lack a functional collagen 4A3 gene (Col4A3−/−) and therefore cannot form normal type IV collagen trimers, which require a3, a4, and a5 chains. Col4a3−/− mice develop fibrosis in the kidney consistent with renal fibrosis in human patients, including interstitial fibrosis and tubular atrophy, and Col4a3−/− mice develop end-stage renal disease (ESRD) between 8 and 30 weeks of age, depending on the genetic background of the mouse. The structural and functional manifestation of renal pathology in Col4a3−/− mice, combined with the progression to ESRD make Col4a3−/− mice an ideal model to understand kidney fibrosis. […]
It is well documented that TGFβ receptor activation leads to a downstream signaling cascade of intracellular events, including phosphorylation of Smad2/3. Therefore, the ability of SR-AB42 and SR-AB63 treatment to inhibit TGFβ signaling was assessed in kidney lysate samples by measuring relative phosphorylation levels of Smad2/3 as assayed by ELISA (Cell Signaling Technologies) according to the manufacturer's instructions. […] FIG. 20B is a graph showing the amount of phosphorylated SMAD2/3 (pSMAD2/3) as determined by ELISA and FIG. 20C is a graph showing the amount of total […] (tSMAD2/3) protein as determined by ELISA.

[3] = molecular target: proTGFβ1 C4S (Homo sapiens, UniProt P01137, C33S); test: Octet binding of immobilized cycle 2 antibodies to C4S antigen; details: antibody immobilized (loading sample)
Excerpt: (§1) A modified proTGFβ1 complex (proTGFβ1 C4S) in which the cysteine residue at position 4 of the pro-domain has been substituted with a serine residue (described in WO 2014/182676) was used to assess antibody binding to C4S antigen by Octet. Cycle 2 antibodies were immobilized and tested against 3 antigens. As shown in the Tables below, robust antibody binding to LTBP-1 proTGFβ1 antigen (Table 23) and proTGFβ1C4S antigen was observed (Table 24), while binding to LRRC33 proTGFβ1 antigen was not observed (Table 25).

[4] = molecular target: huLRRC33 proTGFβ1 (Homo sapiens, UniProt P01137); test: Octet binding of immobilized cycle 2 antibodies; design: modified human kappa light chain signal peptide (N); Histidine tag (C); details: antibody immobilized (loading sample)
Excerpt: as §1

proTGFβ1 C4S, sequence (P01137 30-390 C33S): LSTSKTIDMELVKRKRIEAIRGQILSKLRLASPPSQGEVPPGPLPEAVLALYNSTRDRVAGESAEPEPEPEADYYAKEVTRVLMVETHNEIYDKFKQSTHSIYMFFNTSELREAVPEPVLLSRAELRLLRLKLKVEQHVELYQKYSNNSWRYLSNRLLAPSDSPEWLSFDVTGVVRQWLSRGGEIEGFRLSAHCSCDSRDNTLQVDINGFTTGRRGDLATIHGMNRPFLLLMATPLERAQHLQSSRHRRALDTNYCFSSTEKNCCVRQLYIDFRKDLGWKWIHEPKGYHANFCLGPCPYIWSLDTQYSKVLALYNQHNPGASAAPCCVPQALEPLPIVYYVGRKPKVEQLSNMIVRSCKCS
huLRRC33 proTGFβ1, sequence (P01137 30-390): as the sequence (P01137 30-390 C33S) above, with S4C counted along it
huLRRC33 proTGFβ1, sequence (Q86YC3 with tags, fused parts or gaps partner limits assumed): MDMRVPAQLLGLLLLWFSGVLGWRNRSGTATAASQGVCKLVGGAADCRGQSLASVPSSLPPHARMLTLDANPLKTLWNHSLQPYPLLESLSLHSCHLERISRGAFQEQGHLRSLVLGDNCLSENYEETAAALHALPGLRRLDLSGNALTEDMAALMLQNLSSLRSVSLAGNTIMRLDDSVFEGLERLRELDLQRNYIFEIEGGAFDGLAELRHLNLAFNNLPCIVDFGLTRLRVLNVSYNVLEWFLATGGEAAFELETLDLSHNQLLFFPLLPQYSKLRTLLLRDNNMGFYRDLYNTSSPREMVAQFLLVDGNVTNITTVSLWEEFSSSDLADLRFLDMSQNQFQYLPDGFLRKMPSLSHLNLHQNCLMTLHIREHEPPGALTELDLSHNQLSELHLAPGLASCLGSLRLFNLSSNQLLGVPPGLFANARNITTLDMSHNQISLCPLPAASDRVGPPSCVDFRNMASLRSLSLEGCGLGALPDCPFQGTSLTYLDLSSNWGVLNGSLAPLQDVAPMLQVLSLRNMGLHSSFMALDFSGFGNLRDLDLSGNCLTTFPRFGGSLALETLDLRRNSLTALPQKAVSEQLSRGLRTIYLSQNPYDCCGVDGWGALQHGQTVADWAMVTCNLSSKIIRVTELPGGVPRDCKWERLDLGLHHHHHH

| Molecule | Hydroxyproline (HYP) in liver tissue [1] | pSmad2/3 signaling (pSMAD2/3:tSMAD2/3) in whole kidney lysates [2] | Response, binding to human TGFb1 C4S [3] | Response, binding to human LRRC33 proTGFb1 [4] |
| --- | --- | --- | --- | --- |
| SR-AB42: cycle 3 antibody, lineage SR-AB23; CDRs SEQ ID NO: 166-171; HCVR SEQ ID NO: 318, LCVR SEQ ID NO: 319 (antibody, V domains shown) VH: QVQLVESGGGVVQPGRSLRLSCAASGFTFRSYVMHWVRQAPGKGLEWVAVISHEGSLKYYADSVKGRFTISRDNSKNTLYLQMNSLRAEDTAVYYCARPRIAARRGGFGYWGQGTLVTVSS VL: NFMLTQPHSVSESPGKTVTISCTRSSGNIDNNYVQWYQQRPGSSPTTVIYEDNQRPSGVPDRFSGSIDSSSNSASLTISGLKTEDEADYYCQSYDYDTQGVVFGGGTKLTVL | inhibited the increase in HYP | significantly inhibit pSmad2/3 signaling | – | – |
| SR-AB22: second-round (CDR-H3 mutagenesis) antibody, lineage SR-AB14; CDRs SEQ ID NO: 108-113 (antibody, V domains shown) VH: QVQLVESGGGVVQPGRSLRLSCAASGFTFRSYVMHWVRQAPGKGLEWVAVISHEGSLKYYADSVKGRFTISRDNSKNTLYLQMNSLRAEDTAVYYCAVPRIAARRGGFGYWGQGTLVTVSS VL: NFMLTQPHSVSESPGKTVTISCTRSSGNIDNNYVQWYQQRPGSSPTTVIYEDNQRPSGVPDRFSGSIDSSSNSASLTISGLKTEDEADYYCQSYDSDNQGVVFGGGTKLTVL | – | – | 0.2937 nm | 0.1329 nm |
| SR-AB23: second-round (CDR-H3 mutagenesis) antibody, lineage SR-AB14; CDRs SEQ ID NO: 116-121 (antibody, V domains shown) VH: QVQLVESGGGVVQPGRSLRLSCAASGFTFRSYVMHWVRQAPGKGLEWVAVISHEGSLKYYADSVKGRFTISRDNSKNTLYLQMNSLRAEDTAVYYCARPRIAARRGGFGYWGQGTLVTVSS VL: NFMLTQPHSVSESPGKTVTISCTRSSGNIDNNYVQWYQQRPGSSPTTVIYEDNQRPSGVPDRFSGSIDSSSNSASLTISGLKTEDEADYYCQSYDSDNQGVVFGGGTKLTVL | – | – | 0.2263 nm | 0.0233 nm |
| SR-AB63: cycle 3 antibody, lineage SR-AB26; CDRs SEQ ID NO: 292-297; HCVR SEQ ID NO: 360, LCVR SEQ ID NO: 361 (antibody, V domains shown) VH: QLQLQESGPGLVKPSETLSLTCTVSGGSIRSSSYYWGWIRQPPGKGLEWIGSISYSATTYYNPSLKSRVTISVDTSKNQFSLKLSSVTAADTAVYYCAGDPSYDSIAGMQVWGQGTTVTVSS VL: DIQLTQSPSSLSASVGDRVTITCRASQSISSYLNWYQQKPGKAPKLLIYAASNLQSGVPSRFSGSGSGTDFTLTISSLQPEDFATYYCQQSFDWPLTFGGGTKVEIK | – | significantly inhibit pSmad2/3 signaling | – | – |
